The target in experiment [1] is T1, recombinant human IL-1β (human, UniProt P01584 117-269). Nature of the experiment: cell-based or functional assay.
For a further experiment, the target named is T2, recombinant canine IL-1β (canine, UniProt Q28292 115-266, limits assumed).
T2 construct: also called Canine rIL-1β
T2 sequence (looked up): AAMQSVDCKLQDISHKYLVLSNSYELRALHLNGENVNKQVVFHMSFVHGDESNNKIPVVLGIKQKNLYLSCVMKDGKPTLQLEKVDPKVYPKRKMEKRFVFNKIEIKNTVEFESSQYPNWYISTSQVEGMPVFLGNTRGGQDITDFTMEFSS
Nature of the experiment: cross-reactivity table (Table 2), direct ELISA; text: no detectable binding to canine IL-1β. The method, then:
Recombinant human IL-1β 1 mg/ml was diluted with the coating buffer to a final concentration of 2 μg/ml. 50 μl was added to the designated wells. Canine IL-1β, porcine/swine IL-1β, guinea pig IL-1β, human IL-1ra and human IL-6 were diluted in the coating buffer and added to distinct wells on the plates. Plates were incubated overnight at 4° C. […] The bound scFvs and control antibodies were detected with Protein L-Peroxidase L-HRP (1:3000), rabbit anti-goat HRP (1:5000) and streptavidin HRP (1:3000).
A general note: An ELISA detects its analyte on a solid surface through an enzyme-linked reagent.

Experiment [2] deals with T1, recombinant human IL-1β. Nature of the experiment: Kinetic Exclusion Assay (KinExA, Sapidyne). An excerpt:
Kd is a specific type of equilibrium constant that measures the propensity of a larger object to separate (dissociate) reversibly into smaller components. A Kd analysis requires immobilization of one interaction partner (the […] binding partner) to a solid phase which is then used as a probe to capture the other interaction partner. For each experiment, one of the binding partners is titrated in a background of the captured binding partner (CBP) and allowed to reach equilibrium. The solutions are then briefly exposed to the solid phase and a portion of free CBP is captured. The captured CBP is then labelled with a fluorescent secondary molecule. The signals generated from CBP are used to calculate the Kd value which is directly proportional to the concentration of free CBP in the equilibrated sample.
A general note: A kinetic exclusion assay measures how much of one partner remains free in solution.

A further experiment has as its target T3, Rhesus monkey rIL-1β (rhesus monkey, UniProt P48090 117-269).
T3 construct: also called rhesus macaque IL-1β; rhesus IL-1β
Nature of the experiment: cross-reactivity table (direct ELISA). The method, then:
(§1) Plate wells were coated with each protein and incubated overnight at 4° C.

The next experiment addresses T4, Cynomolgus rIL-1β (cynomolgus, UniProt P79182 117-268, limits assumed).
T4 construct: also called cynomolgus IL-1β
Nature of the experiment: cross-reactivity table (direct ELISA). The method, then:
as §1

Experiment [3] concerns the target T1, recombinant human IL-1β. Nature of the experiment: cell-based or functional assay. This is another data set of the same source.
Experiment [4] addresses T1, recombinant human IL-1β. Nature of the experiment: cell-based or functional assay. This is another data set of the same source.

T4 sequence (P79182 117-268 limits assumed): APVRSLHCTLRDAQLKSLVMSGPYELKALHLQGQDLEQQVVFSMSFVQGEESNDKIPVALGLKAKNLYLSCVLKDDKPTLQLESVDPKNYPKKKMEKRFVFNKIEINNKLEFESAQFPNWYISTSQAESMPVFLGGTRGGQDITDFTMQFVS
T3 sequence (P48090 117-269 limits assumed): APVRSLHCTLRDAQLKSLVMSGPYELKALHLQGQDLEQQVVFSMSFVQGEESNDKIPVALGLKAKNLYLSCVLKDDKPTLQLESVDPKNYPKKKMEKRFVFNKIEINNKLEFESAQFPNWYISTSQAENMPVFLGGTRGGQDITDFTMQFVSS

B1: DLX-2323 (scFv)
scFv: EIVMTQSPSTLSASVGDRVIITCQASQSIDNWLSWYQQKPGKAPKLLIYRASTLASGVPSRFSGSGSGAEFTLTISSLQPDDFATYYCQNTGGGVSIAFGQGTKLTVLGGGGGSGGGGSGGGGSGGGGSEVQLVESGGGLVQPGGSLRLSCTASGFSLSSAAMAWVRQAPGKGLEWVGIIYDSASTYYASWAKGRFTISRDTSKNTVYLQMNSLRAEDTAVYYCARERAIFSGDFVLWGQGTLVTVSS
notes: Humanized single chain antibody fragment expressed in E. coli (inclusion bodies)
By Kd is commonly meant the constant that tells how readily two partners part at equilibrium. The term koff denotes the first-order rate constant of dissociation. By kon is commonly meant the second-order rate constant of association. B1: the “IC50 (column head of Table 2)” value with recombinant human IL-1β [1] is 2 to 3 pM. Also, the binding result with recombinant canine IL-1β is “no binding”. In the experiment with recombinant human IL-1β [2], the Kd was found to be 0.756 pM, the koff was determined as 5.7e-06 s⁻¹ and the kon amounted to 7.55e+06 M⁻¹ s⁻¹. For the same molecule, the binding result with Rhesus monkey rIL-1β is listed as “binds”. Besides, the binding result in the experiment with Cynomolgus rIL-1β was “binds”. Moreover, in the experiment with recombinant human IL-1β [3], the “IC50, inhibition of IL-1β-induced IL-6 release from normal human dermal fibroblasts (IL-6 ELISA)” value came to 3 pM and the “potency relative to IL-1RA, inhibition of IL-1β-induced IL-6 release” value is 10 fold.

B2: canakinumab (antibody, V domains shown)
VH: QVQLVESGGGVVQPGRSLRLSCAASGFTFSVYGMNWVRQAPGKGLEWVAIIWYDGDNQYYADSVKGRFTISRDNSKNTLYLQMNGLRAEDTAVYYCARDLRTGPFDYWGQGTLVTVSS
VL: EIVLTQSPDFQSVTPKEKVTITCRASQSIGSSLHWYQQKPDQSPKLLIKYASQSFSGVPSRFSGSGSGTDFTLTINSLEAEDAAAYYCHQSSSLPFTFGPGTKVDIKR
On to B2, for which the “IC50 (read off the curve), inhibition of rhIL-1β-induced IL-6 release from human dermal fibroblasts” value with recombinant human IL-1β [4] was ~60 pM.
